# In patent US20150037339A1 (Regeneron, published 2015):
# T1: Activin AC (human, UniProt P55103 237-352)
# T1 construct: Heterodimer of one betaA and one betaC subunit; bought (R&D Systems #4879-AC)
# T1 sequence 1: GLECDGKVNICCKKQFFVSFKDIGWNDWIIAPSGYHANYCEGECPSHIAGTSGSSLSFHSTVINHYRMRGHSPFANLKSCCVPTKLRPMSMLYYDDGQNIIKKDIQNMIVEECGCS
# T1 sequence 2: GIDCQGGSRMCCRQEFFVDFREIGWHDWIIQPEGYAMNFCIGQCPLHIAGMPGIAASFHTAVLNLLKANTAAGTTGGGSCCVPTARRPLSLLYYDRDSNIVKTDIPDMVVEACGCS
# T2: Activin AB (human, UniProt P08476 311-426; P09529 293-407)
# T2 construct: Heterodimer of one betaA and one betaB subunit; bought (R&D Systems #1006-AB-005 / #1066-AB)
# T2 chain 1: T1 sequence 1
# T2 chain 2: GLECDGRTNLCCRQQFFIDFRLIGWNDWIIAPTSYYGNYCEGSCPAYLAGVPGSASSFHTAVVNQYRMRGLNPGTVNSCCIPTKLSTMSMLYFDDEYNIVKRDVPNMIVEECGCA
# T3: hBMP7 (human, UniProt P18075 293-431)
# T3 construct: Bought protein
# T3 sequence (looked up): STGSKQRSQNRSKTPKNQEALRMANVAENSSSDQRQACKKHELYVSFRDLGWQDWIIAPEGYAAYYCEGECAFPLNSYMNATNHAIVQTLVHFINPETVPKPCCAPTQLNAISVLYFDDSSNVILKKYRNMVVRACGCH
# T4: hBMP9 (human, UniProt Q9UK05 320-429)
# T4 construct: Bought protein
# T4 sequence (looked up): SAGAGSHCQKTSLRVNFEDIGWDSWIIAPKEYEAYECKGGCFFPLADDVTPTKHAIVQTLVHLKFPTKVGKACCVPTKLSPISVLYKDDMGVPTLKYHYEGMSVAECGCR
# T5: hBMP4 (human, UniProt P12644 293-408)
# T5 construct: Bought protein
# T5 sequence (looked up): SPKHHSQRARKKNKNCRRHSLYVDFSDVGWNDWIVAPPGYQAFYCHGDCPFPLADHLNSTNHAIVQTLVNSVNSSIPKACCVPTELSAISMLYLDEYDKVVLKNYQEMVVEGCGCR
# T6: hBMP6 (human, UniProt P22004 382-513, limits assumed)
# T6 construct: Bought protein
# T6 sequence (looked up): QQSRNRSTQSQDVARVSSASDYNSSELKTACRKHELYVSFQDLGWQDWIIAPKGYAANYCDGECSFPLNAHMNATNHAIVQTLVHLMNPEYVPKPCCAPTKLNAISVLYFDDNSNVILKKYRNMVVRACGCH
# T7: Activin B (human, UniProt P09529 293-407)
# T7 construct: Homodimer of two betaB subunits; bought (R&D Systems #659-AB)
# T7 chain: T2 chain 2
# T8: Activin A (human, UniProt P08476 311-426)
# T8 construct: Homodimer of two betaA subunits; bought (R&D Systems #338-AC); also called inhibin-betaA dimer
# T8 sequence: T1 sequence 1
# T9: hBMP10 (human, UniProt O95393 317-424)
# T9 construct: Bought protein
# T9 sequence (looked up): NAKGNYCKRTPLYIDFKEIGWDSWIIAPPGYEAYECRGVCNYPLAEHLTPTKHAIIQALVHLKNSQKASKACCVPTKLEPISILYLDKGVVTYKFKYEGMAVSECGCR
# B1: H4H10446P2 (antibody, human IgG4, V domains shown)
# VH: QVQLQESGPGLVKPSETLSLTCTVSGGSFSSHFWSWIRQPPGKGLEWIGYILYTGGTSFNPSLKSRVSMSVGTSKNQFSLKLSSVTAADTAVYYCARARSGITFTGIIVPGSFDIWGQGTMVTVSS
# VL: not shown
# What was measured:
# Activin AC [1] = target: T1, Activin AC; assay: SPR (Biacore), mAb captured on anti-Fc, Activin AC injected, 25 C
# Outline: (§1)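 240 s association, 600 s buffer dissociation; ka, kd fitted; KD (M) = kd/ka; t1/2 (min) = ln2/(60*kd).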
# Activin AC [2] = target: T1, Activin AC; assay: SPR (Biacore), mAb captured on anti-Fc, Activin AC injected, 37 C
# Outline: as §1
# Activin AB [3] = target: T2, Activin AB; assay: SPR (Biacore), mAb captured on anti-Fc, Activin AB injected, 25 C
# Outline: as §1
# hBMP7 = target: T3, hBMP7; assay: SPR (Biacore 4000), captured on anti-human Fc, 200 nM ligand injected, 37 C
# Method: (§2) For the binding experiment, a Biacore 4000 instrument was used. […] All Biacore binding studies were performed in HBS-T running buffer (0.01 M HEPES pH 7.4, 0.5 M NaCl, 3 mM EDTA, 0.5 mg/ml bovine serum albumin, 0.05% v/v Surfactant P20). […] All binding measurements were performed at 37° C. […] Over the captured antibody surface was injected the TGF-beta family ligands through concentrations ranging from 3.1 nM to 200 nM.
# hBMP9 = target: T4, hBMP9; assay: as above
# Method: as §2
# Activin AC [4] = target: T1, Activin AC; assay: as above
# Method: as §2
# Activin AB [5] = target: T2, Activin AB; assay: as above
# Method: as §2
# hBMP4 = target: T5, hBMP4; assay: as above
# Method: as §2
# hBMP6 = target: T6, hBMP6; assay: as above
# Method: as §2
# Activin B = target: T7, Activin B; assay: as above
# Method: as §2
# GDF8 = target: T10, GDF8 (human, UniProt O14793 267-375); assay: as above
# T10 construct: Bought (R&D Systems #788-G8); also called hGDF8; growth and differentiation factor-8
# Method: as §2
# Activin A [6] = target: T8, Activin A; assay: as above
# Method: as §2
# GDF11 = target: T11, GDF11 (human, UniProt O95390 299-407); assay: as above
# T11 construct: Bought protein; also called hGDF11
# T11 sequence (O95390 299-407 limits assumed): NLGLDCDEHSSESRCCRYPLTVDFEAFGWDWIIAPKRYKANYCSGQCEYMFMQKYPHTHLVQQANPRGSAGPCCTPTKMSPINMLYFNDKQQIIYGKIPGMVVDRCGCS
# Method: as §2
# hBMP10 = target: T9, hBMP10; assay: as above
# Method: as §2
# hBMP2 = target: T12, hBMP2 (human, UniProt P12643 283-396); assay: as above
# T12 construct: Bought protein; also called BPM2
# T12 sequence (P12643 283-396 limits assumed): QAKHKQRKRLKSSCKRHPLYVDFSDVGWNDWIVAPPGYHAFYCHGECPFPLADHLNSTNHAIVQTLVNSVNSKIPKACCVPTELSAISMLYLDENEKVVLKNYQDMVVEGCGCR
# Method: as §2
# Activin AB [7] = target: T2, Activin AB; assay: SPR (Biacore), mAb captured on anti-Fc, Activin AB injected, 37 C
# Outline: as §1
# Activin AC [8] = target: T1, Activin AC; assay: cell-based or functional assay
# Activin AB [9] = target: T2, Activin AB; assay: cell-based or functional assay
# Activin A [10] = target: T8, Activin A; assay: cell-based or functional assay
binder,measurement,setting,value
B1,50 nM Ag Bound (RU),Activin AC [1],12.6 RU
same,Kd,Activin AC [1],11.8 nM
same,koff,Activin AC [1],0.0122 s⁻¹
same,kon,Activin AC [1],1.04e+06 M⁻¹ s⁻¹
same,t1/2,Activin AC [1],0.9 min
same,50 nM Ag Bound (RU),Activin AC [2],14.4 RU
same,Kd,Activin AC [2],22.5 nM
same,koff,Activin AC [2],0.0216 s⁻¹
same,kon,Activin AC [2],959000 M⁻¹ s⁻¹
same,t1/2,Activin AC [2],0.5 min
same,50 nM Ag Bound (RU),Activin AB [3],31.9 RU
same,Kd,Activin AB [3],0.815 nM
same,koff,Activin AB [3],0.00406 s⁻¹
same,kon,Activin AB [3],4.99e+06 M⁻¹ s⁻¹
same,t1/2,Activin AB [3],2.8 min
same,binding response (resonance units) for 200 nM ligand,hBMP7,5.7 RU
same,binding response (resonance units) for 200 nM ligand,hBMP9,-0.3 RU
same,binding response (resonance units) for 200 nM ligand,Activin AC [4],15.2 RU
same,binding response (resonance units) for 200 nM ligand,Activin AB [5],66.7 RU
same,binding response (resonance units) for 200 nM ligand,hBMP4,0.8 RU
same,binding response (resonance units) for 200 nM ligand,hBMP6,5.3 RU
same,binding response (resonance units) for 200 nM ligand,Activin B,2.6 RU
same,binding response (resonance units) for 200 nM ligand,GDF8,0.7 RU
same,binding response (resonance units) for 200 nM ligand,Activin A [6],53.2 RU
same,binding response (resonance units) for 200 nM ligand,GDF11,1.8 RU
same,binding response (resonance units) for 200 nM ligand,hBMP10,0.5 RU
same,binding response (resonance units) for 200 nM ligand,hBMP2,3.3 RU
same,50 nM Ag Bound (RU),Activin AB [7],41.5 RU
same,Kd,Activin AB [7],1.34 nM
same,koff,Activin AB [7],0.00817 s⁻¹
same,kon,Activin AB [7],6.08e+06 M⁻¹ s⁻¹
same,t1/2,Activin AB [7],1.4 min
same,"IC50 [M], inhibition of 4 nM Activin AC in A204/CAGAx12-Luc Smad2/3-luciferase bioassay",Activin AC [8],5.6e-09 M
same,"IC50 [M], inhibition of 30 pM Activin AB in A204/CAGAx12-Luc Smad2/3-luciferase bioassay",Activin AB [9],8.2e-09 M
same,"IC50 [M], inhibition of 100 pM Activin A in A204/CAGAx12-Luc Smad2/3-luciferase bioassay",Activin A [10],4.7e-11 M
